Consider nine molecules from PMC12415261 (Proceedings of the National Academy of Sciences of the …, 2025).

B5: Recombinant human BMP6 (mammalian expressed, glycosylated) (ligand, UniProt P22004 375-513, looked up)
chain: SASSRRRQQSRNRSTQSQDVARVSSASDYNSSELKTACRKHELYVSFQDLGWQDWIIAPKGYAANYCDGECSFPLNAHMNATNHAIVQTLVHLMNPEYVPKPCCAPTKLNAISVLYFDDNSNVILKKYRNMVVRACGCH
modifications: N-linked glycosylation at Asn454 (prehelix loop)
notes: BMP6, human, mature domain of the precursor (residues 410 to 513 resolved in the cryoEM maps, 82.3% of the mature domain); disulfide-linked dimer; also called Bone Morphogenetic Protein 6; source: bought: RnD (Cat. No. 507-BP), produced from CHO cells
B6: Recombinant human BMP6, mammalian expressed (glycosylated) (ligand, UniProt P22004 375-513, looked up)
chain: SASSRRRQQSRNRSTQSQDVARVSSASDYNSSELKTACRKHELYVSFQDLGWQDWIIAPKGYAANYCDGECSFPLNAHMNATNHAIVQTLVHLMNPEYVPKPCCAPTKLNAISVLYFDDNSNVILKKYRNMVVRACGCH
modifications: N-linked glycosylation at Asn454 (prehelical loop)
notes: mature domain of human BMP6; residues 410 to 513 resolved in the maps (82.3% of mature domain); Dimer held together by a cystine knot; also called glycosylated BMP6; source: bought: RnD (Cat. No. 507-BP), produced from CHO cells
B9: Deglycosylated BMP6 (BMP6 treated with PNGaseF) (ligand, human, UniProt P22004 375-513, looked up)
chain: SASSRRRQQSRNRSTQSQDVARVSSASDYNSSELKTACRKHELYVSFQDLGWQDWIIAPKGYAANYCDGECSFPLNAHMNATNHAIVQTLVHLMNPEYVPKPCCAPTKLNAISVLYFDDNSNVILKKYRNMVVRACGCH
notes: BMP6, human, mature domain of the precursor, N-linked glycosylation completely removed with PNGaseF; disulfide-linked dimer; Same protein as Dm1 after PNGaseF treatment; also called dgBMP6; PNGaseF treated BMP6; source: bought: RnD (Cat. No. 507-BP), produced from CHO cells; deglycosylated with rapid PNGase F (New England Biolabs), 15 min at 50 C

Test [1] has as its target B5. Briefly: SPR; Cytiva T-200; trap captured through its Fc on a CM4 chip with immobilised goat antihuman Fc-specific IgG (about 3,000 RU); ligand flowed, five-step twofold dilution from 5 nM; 10 mM HEPES pH 7.4, 350 mM NaCl, 3.4 mM EDTA, 0.005% P-20; 25 C; 300 s association and dissociation, 30 uL/min; 1:1 fit with mass transport limitation; triplicate. Conditions: both partners purified.

Test [2] deals with B9. Described as above. Conditions: both partners purified.
In test [3] the target is B6. Briefly: SPR; traps captured by goat antihuman Fc IgG on a CM4 chip; ligand flowed, five-step twofold dilution from 5 nM; HBS-EP+ (10 mM HEPES pH 7.4, 350 mM NaCl, 3.4 mM EDTA, 0.005% P-20), 25 °C; 1:1 fit with mass transport limitation. Conditions: both partners purified.
In test [4] the target is ActRIIB1-Fc (trap with a single ActRIIB extracellular domain) (human). Briefly: SPR; Cytiva T-200; trap captured through its Fc on a CM4 chip with immobilised goat antihuman Fc-specific IgG (about 3,000 RU); ligand flowed, five-step twofold dilution from 5 nM; 10 mM HEPES pH 7.4, 350 mM NaCl, 3.4 mM EDTA, 0.005% P-20; 25 C; 300 s association and dissociation, 30 uL/min; 1:1 fit with mass transport limitation; triplicate.

Test [5] addresses T1, ALK2-ActRIIB-Fc (heterodimeric trap) (human, UniProt Q04771 21-123; Q13705 19-133).
T1 construct: signal peptide in the construct; ActRIIB, human, extracellular domain, residues 1 to 133, fused to an IgG1 Fc domain; also called ALK2-IIB-Fc; ActRIIB-ALK2; source: SEC Superdex 200 increase; not shown: Fc (IgG1), C-terminal, kept; copies: 1 + 1
The test is described as above. Conditions: both partners purified.

In test [6] the target is T2, ALK3-ActRIIB-Fc (heterodimeric trap) (human, UniProt P36894 24-152; Q13705 19-133).
T2 construct: signal peptide in the construct; ActRIIB, human, extracellular domain, residues 1 to 133, fused to an IgG1 Fc domain; also called ALK3-IIB-Fc; ActRIIB-ALK3; source: SEC Superdex 200 increase; not shown: Fc (IgG1), C-terminal, kept; copies: 1 + 1
Described as above. To be noted: both partners purified.

In another test the target is T3, ALK2-ActRIIB-Fc (human, UniProt Q04771 21-123; Q13705 19-133).
T3 construct: signal peptide in the construct; extracellular domain of human ActRIIB, residues 1 to 133; also called heterodimeric trap; ActRIIB-ALK2; source: CHO cells, cotransfected, purified (MabSelect SuRe protein A with pH gradient, SEC); not shown: Fc (IgG1), C-terminal, kept; copies: 1 + 1
The experiment in a line: SPR; traps captured by goat antihuman Fc IgG on a CM4 chip; ligand flowed, five-step twofold dilution from 5 nM; HBS-EP+ (10 mM HEPES pH 7.4, 350 mM NaCl, 3.4 mM EDTA, 0.005% P-20), 25 °C; 1:1 fit with mass transport limitation. To be noted: both partners purified.

For the next test, the target named is T4, ALK3-ActRIIB-Fc (human, UniProt P36894 24-152; Q13705 19-133).
T4 construct: signal peptide in the construct; extracellular domain of human ActRIIB, residues 1 to 133; also called heterodimeric trap; ActRIIB-ALK3; source: CHO cells, cotransfected, purified (MabSelect SuRe protein A, SEC); not shown: Fc (IgG1), C-terminal, kept; copies: 1 + 1
Described as above. To be noted: both partners purified.

In another test the target is ActRIIB1-Fc (human). Described as above.

T1 sequence (Q04771 21-123, one chain of several): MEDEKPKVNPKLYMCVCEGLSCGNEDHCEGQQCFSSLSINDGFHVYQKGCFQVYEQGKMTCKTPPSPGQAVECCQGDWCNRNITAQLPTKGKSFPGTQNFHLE
T2 sequence (P36894 24-152, one chain of several): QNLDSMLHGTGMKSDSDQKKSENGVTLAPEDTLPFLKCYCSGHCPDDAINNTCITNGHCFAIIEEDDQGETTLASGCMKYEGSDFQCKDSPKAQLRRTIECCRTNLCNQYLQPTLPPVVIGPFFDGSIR
T3 sequence (Q04771 21-123, one chain of several): as the sequence (Q04771 21-123, one chain of several) above
T4 sequence (P36894 24-152, one chain of several): as the sequence (P36894 24-152, one chain of several) above

B1: ActRIIB2-Fc (trap with two ActRIIB extracellular domains) (Fc fusion, human, UniProt Q13705-1 19-133, looked up)
chain: SGRGEAETRECIYYNANWELERTNQSGLERCEGEQDKRLHCYASWRNSSGTIELVKKGCWLDDFNCYDRQECVATEENPQVYFCCCEGNFCNERFTHLPEAGGPEVTYEPPPTAP
notes: signal peptide in the construct; ActRIIB (activin receptor type IIB), human, extracellular domain, residues 1 to 133, fused to an IgG1 Fc domain; The limits 1 to 133 are told for the ActRIIB-Fc fusions of this study in general; not shown: Fc (IgG1), C-terminal, kept
Consider B1, for which, in test [1], the off-rate constant (koff) was found to be 0.00119 s⁻¹ and the association rate constant (kon) was determined as 3.17e+07 M⁻¹ s⁻¹. Also, in test [2], binding was characterised by a dissociation constant (Kd) of 0.0489 ± 0.006 nM, the off-rate constant (koff) came to 0.00152 s⁻¹ and the on-rate constant (kon) was 3.12e+07 M⁻¹ s⁻¹.

B2: ActRIIB2-Fc (Fc fusion, human, UniProt Q13705-1 19-133, looked up)
chain: SGRGEAETRECIYYNANWELERTNQSGLERCEGEQDKRLHCYASWRNSSGTIELVKKGCWLDDFNCYDRQECVATEENPQVYFCCCEGNFCNERFTHLPEAGGPEVTYEPPPTAP
notes: signal peptide in the construct; extracellular domain of human ActRIIB, residues 1 to 133; also called trap containing two ActRIIB ECDs; source: CHO cells, purified, as previously described (17, 19); not shown: Fc (IgG1), C-terminal, kept
With B2, the Kd in test [3] was determined as 0.0421 nM.

B3: ActRIIB1-Fc (trap with a single ActRIIB extracellular domain) (Fc fusion)
chain: SGRGEAETRECIYYNANWELERTNQSGLERCEGEQDKRLHCYASWRNSSGTIELVKKGCWLDDFNCYDRQECVATEENPQVYFCCCEGNFCNERFTHLPEAGGPEVTYEPPPTAP
modifications: Printed range is 1-133; signal peptide 1-18 is removed. The deposited 9N4K/9MIR chains run to T134 before the linker. Human IgG1 Fc carrier is left out; the second Fc arm carries no receptor. …
As to B3, in [2], the affinity, expressed as Kd, was 0.11 ± 0.0148 nM; the koff worked out at 0.00186 s⁻¹; the on-rate (kon) turned out to be 1.7e+07 M⁻¹ s⁻¹.

B4: Recombinant human BMP6 (mammalian expressed, glycosylated), P22004 375-513 (ligand)
chain: SASSRRRQQSRNRSTQSQDVARVSSASDYNSSELKTACRKHELYVSFQDLGWQDWIIAPKGYAANYCDGECSFPLNAHMNATNHAIVQTLVHLMNPEYVPKPCCAPTKLNAISVLYFDDNSNVILKKYRNMVVRACGCH
modifications: here or on the partner: N-linked glycosylation at Asn454 (prehelix loop)
On to B4, for which, in test [4], the koff was determined as 0.00234 s⁻¹ and the on-rate constant (kon) came to 2.16e+07 M⁻¹ s⁻¹.
As to B5, the koff in test [5] came to 0.000528 s⁻¹; in test [6], 0.000423 s⁻¹. For the same molecule, the association rate constant (kon) is 1.43e+07 M⁻¹ s⁻¹ in test [5] and 1.39e+07 M⁻¹ s⁻¹ in [6].
On to B6, for which the dissociation constant (Kd) turned out to be 0.0366 nM with ALK2-ActRIIB-Fc and 0.03 nM in the test with ALK3-ActRIIB-Fc.

B7: Deglycosylated BMP6 (BMP6 treated with PNGaseF) (ligand, human, UniProt P22004 375-513, looked up)
chain: SASSRRRQQSRNRSTQSQDVARVSSASDYNSSELKTACRKHELYVSFQDLGWQDWIIAPKGYAANYCDGECSFPLNAHMNATNHAIVQTLVHLMNPEYVPKPCCAPTKLNAISVLYFDDNSNVILKKYRNMVVRACGCH
modifications: glycosylation completely removed with PNGaseF
notes: mature domain of human BMP6; also called dgBMP6; source: bought: RnD (Cat. No. 507-BP), CHO; deglycosylated with rapid PNGase F (15 min at 50 °C)
In the case of B7, the Kd came to 0.127 nM in the test with ALK2-ActRIIB-Fc and 0.0351 nM with ALK3-ActRIIB-Fc.

B8: Recombinant human BMP6, mammalian expressed (glycosylated), P22004 375-513 (ligand)
chain: SASSRRRQQSRNRSTQSQDVARVSSASDYNSSELKTACRKHELYVSFQDLGWQDWIIAPKGYAANYCDGECSFPLNAHMNATNHAIVQTLVHLMNPEYVPKPCCAPTKLNAISVLYFDDNSNVILKKYRNMVVRACGCH
modifications: here or on the partner: N-linked glycosylation at Asn454 (prehelical loop)
For B8, the Kd with ActRIIB1-Fc (human) amounted to 0.108 nM.
In test [5], B9 yielded a koff of 0.00147 s⁻¹ and an on-rate constant (kon) of 1.16e+07 M⁻¹ s⁻¹. In [6], this molecule had an off-rate constant (koff) of 0.000432 s⁻¹ and a kon of 1.23e+07 M⁻¹ s⁻¹.
